Reference: patent US10279036B2, “Antibody-albumin nanoparticle complexes comprising albumin, bevacizumab, and paclitaxel, and methods of making and using the same” (Mayo Foundation for Medical Education and Research, priority 2012, dated 2019)
Read-outs that look alike come from different tables or passages of the source.

Tests used:
[1] = tested on: A375 melanoma tumor cells; test: A375 proliferation assay (DNA synthesis, EdU); type: cell-based, human; conditions: 100 μg/mL, overnight
Experimental: After the overnight incubation, cell proliferation was determined by measuring the level of DNA synthesis.
After an overnight incubation, proliferation of the cells was measured by determining the level of DNA synthesis.
Proliferation of A375 melanoma tumor cells in vitro following exposure to various treatments was assessed. […] With reference to FIG. 33, the complexes were made with an ABRAXANE®: AVASTIN® at a 2.5 to 1 ratio. […] The nanoparticles were resuspended in 0.9% saline and added to the wells containing 50,000 A375 cells. The cells were incubated overnight at 37° C. The cells were stained with a thymidine analog, EdU, which incorporates into the DNA as cells proliferate. Cells that are actively proliferating stain positive. The proliferation index was calculated as the % positive cells in treated cells/% positive cells in untreated cells.
After the overnight incubation, the A375 cells were harvested, permeabolized and intracellularly stained with a FITC conjugated anti-EdU antibody. Cell proliferation was determined by DNA synthesis as a percentage of cells, which were FITC positive on a Guava 8HT flow cytometer (Millipore Billerica, Mass.). […] The proliferation index was calculated by dividing the percentage of proliferating cells in treated wells (FITC positive) by the percentage of cells proliferating in the untreated well.

[2] = tested on: A375 human melanoma tumor cells; test: A375 xenograft, ABRAXANE/AVASTIN/cisplatin complexes; conditions: treated once intravenously
Experimental: Athymic nude mice were injected with 1×10^6 A375 human melanoma tumor cells. […] Following incubation, the complexes were diluted for mouse injection. Mice were treated once, and tumor growth was monitored for at least 80 days for all mice.

[3] = target: T1, ABRAXANE® nanoparticles (Homo sapiens, UniProt P02768); test: Complex formation of labeled therapeutic antibodies with labeled ABRAXANE nanoparticles (flow cytometry); type: binding; conditions: fluorescently labeled, FIG. 14
T1 construct: purchased Celgene Corp
Source text: The particles were spun down, washed, and visualized by flow cytometry.

[4] = Bevacizumab binding of free paclitaxel (Western blot); conditions: 4 mg bevacizumab with 0.1-2 mg paclitaxel, 30 minutes room temperature
Experimental: The following was performed to determine if bevacizumab binds free paclitaxel. 4 mg of bevacizumab was incubated with paclitaxel (0.1, 0.5, 1, or 2 mg) for 30 minutes at room temperature.

[5] = target: T2, human serum albumin (Homo sapiens, UniProt P02768); test: Association and dissociation of AVASTIN with human serum albumin (streptavidin sensor); type: binding; conditions: read-out: dissociation constant
T2 construct: purchased
Experimental: (§1) The association and dissociation of AVASTIN® with human serum albumin and ABRAXANE® were determined. In this experiment, biotinylated AVASTIN® was bound to a streptavidin sensor. After AVASTIN® loading to the sensor, the sensor was exposed to either 1 mg/mL of human serum albumin or 1 mg/mL of ABRAXANE®. […] The dissociation constants were calculated to be 6.2×10^−6 and 5.873×10^−7 for human serum albumin and ABRAXANE®, respectively.
(§2) The association and dissociation of albumin with AVASTIN® and AVASTIN® with ABRAXANE® were determined. In this experiment, biotinylated AVASTIN® or biotinylated Albumin® was bound to a streptavidin sensor. After albumin or AVASTIN® loading to the sensor, the sensor was exposed to 1 mg/mL of AVASTIN® or 1 mg/mL of ABRAXANE®, respectively. […] The dissociation constant calculated for albumin and AVASTIN® was 6.588×10^−10. The dissociation constant calculated for AVASTIN® and ABRAXANE® in this experiment was 1.698×10^−5.

[6] = target: T3, ABRAXANE® (Homo sapiens, UniProt P02768); test: Association and dissociation of AVASTIN (or IgG) with ABRAXANE (streptavidin sensor); type: binding; conditions: biotinylated AVASTIN on streptavidin sensor, 1 mg/mL ABRAXANE, read-out: dissociation constant
T3 construct: purchased Celgene Corp
Experimental: as §1, §2
The following was performed to assess protein binding due to deglycosylation of bevacizumab compared to naturally occurring IgG. In order to determine if bevacizumab binding to ABRAXANE® is due to the deglycosylation of the Fe chain of the antibody, the binding kinetics of bevacizumab were compare to naturally produced IgG isolated from human plasma.

Compound | cells killed [1] | median survival [2] | complex formation with ABRAXANE nanoparticles [3] | binding of free paclitaxel [4] | Kd ([5]; biotinylated AVASTIN on streptavidin sensor, 1 mg/mL human serum albumin) | Kd ([5]; biotinylated albumin on streptavidin sensor, 1 mg/mL AVASTIN) | Kd ([6]; first experiment, listed as bevacizumab) | Kd ([6]; first experiment) | Kd ([6]; second experiment)
N.N.[Cl][Pt][Cl] [cisplatin, cisdiamminedichloroplatinum (II)] | 100% | 9 days |  |  |  |  |  |  | 
AVASTIN®: humanized monoclonal antibody that binds to vascular endothelial growth factor A |  |  | spontaneously formed complexes with ABRAXANE® nanoparticles | did not bind free paclitaxel | 6.2 µM | 0.000659 µM | 580 nM | 587 nM | 17000 nM
rituxan: therapeutic monoclonal antibody |  |  | spontaneously formed complexes with ABRAXANE® nanoparticles |  |  |  |  |  | 
